Patent publication US20200239927A1, “SENSOR FOR CYANURIC ACID DETECTION” (WISCONSIN ALUMNI RESEARCH FOUNDATION, priority 2019, published 2020)

Legend:
DH10B E. coli cells = assay: Promoter activity: constitutive GFP reporter expression without AtzR; type: cell-based; settings: for transcriptional activity compared with WT promoter, measured by reporter expression: E. coli, promoter only, no AtzR; for GFP reporter expression of cells carrying only the promoter: no AtzR present, rich and minimal media
Description: Fluorescence measurement: To measure promoter activities, transformed reporter plasmids (including WT promoter plasmid) were transformed into DH10B cells (NEB) using electroporation and plated cells on LB agar plates with kanamycin (50 ug/mL). After overnight growth at 37° C., at least 3 individual colonies were selected for each reporter plasmid and inoculated into 150 μL LB medium with 50 μg/mL kanamycin in a 96-well plate. After 3 hours of growth at 37° C. in a multi-plate shaker (1100 rpm, Southwest Science), cells were diluted 1:50 into 150 μL LB medium or MOPS medium (supplemented with 0.4% glucose and 1× BME vitamin) with 50 μg/mL kanamycin in a 96-well plate. Cells were grown at 37° C. with shaking (1100 rpm). After 16 hours, OD600 and fluorescence (excitation at 488 nm and emission at 520 nm with a gain of 40) of each well was measured using a multi-well plate reader (Synergy HTX, BioTek .Inc). Fluorescence was normalized against OD600. Blank (normalized fluorescence of cells carrying no GFP) was subtracted from those measurements. Mean and standard deviation of each reporter plasmid activity were calculated from measurements of 3 biological replicates.

AtzR [1] = assay: Fold repression of GFP reporter by co-expressed AtzR; type: cell-based; settings: minimal medium
Description: (§1) To measure fold repression, each reporter plasmid was co-transformed with low and high copy sensor plasmid separately. The end results include two test versions for each reporter plasmid: (the reporter plasmid, low copy sensor plasmid), (the reporter, high copy sensor plasmid), reporter plasmids were transformed with either of the sensor plasmids. Similar to the process of measuring promoter activity, the activities of at least 3 biological replicates were measured for each reporter and sensor plasmid pair. The only difference was that 50 μg/mL kanamycin and […] Spectinomycin were used to maintain both of the reporter and sensor plasmids. The fold repression was calculated as a ratio of the fluorescence of reporter divided by the fluorescence of this reporter when it was paired with a sensor plasmid. To measure fold induction, the process of obtaining fold repression was followed. The only difference was the addition of 200 μM cyanuric acid during the growth. The fold induction was calculated as a ratio of the fluorescence of the induced state divided by the fluorescence of the repressed state.

AtzR [2] = assay: Fold induction of GFP reporter by cyanuric acid with co-expressed AtzR; type: cell-based; settings: for response to cyanuric acid (inducibility) / fold activation (ratio of GFP with and without cyanuric acid): 200 μM cyanuric acid; for response to cyanuric acid (inducibility) / uninduced baseline (no cyanuric acid): AtzR co-expressed; for increase in reporter expression in response to cyanuric acid: E. coli, medium not stated
Description: as §1

AtzR [3] = assay: Cyanuric acid dose response and visual detection limit of the AtzR biosensor; type: cell-based, E. coli DH10B; settings: for cyanuric acid concentration at which signal begins to saturate: rich and minimal media (125 ppm)
Description: To obtain transfer functions of various reporter and sensor plasmid pairs, different concentrations of cyanuric acid were delivered via DMSO to cultures (less than 1% of the total volume). After growth for 16 hours, fluorescence was measured and normalized similar to previous experiments.
Visual detection limit: To determine the visual detection limit in LB and MOPS media, E. coli DH10B with or without constitutive GFP expression was grown in LB with appropriate antibiotics for 16 hours in […] on a shaker(1100 rpm). Two 2 mL aliquots from each culture were spun down at 5000 G for 5 minutes in a benchtop centrifuge at room temperature. The media was aspirated out and the cell pellets resuspended in either 2 mL LB or 2 mL MOPS media. The spin-down and resuspension procedure was repeated two more times. Then, cells without GFP in LB (or MOPS) were mixed with cells carrying GFP in LB (or MOPS) to 150 μL with various ratios (cells without GFP-cells with GFP: 100%-0%, 95%-5%, 90%-10%, 85%-15%, 70%-30%, 55%-45%, 30%-70%, 0%-100%). After measuring the fluorescence and OD600 of the mixed cultures in a 96-well plate, the cultures were transferred to ultra-thin strip tubes ordered by increasing percentage of cells carrying GFP. Five individuals were asked to identify the culture that they could be confident to tell apart (in terms of the color of the culture) from the culture containing no cells with GFP (100%-0%). The identification process for cultures in LB and MOPS was performed by placing culture tubes in front a piece of white paper. The weighted average of fluorescence of cultures was identified by five individuals for cultures in LB and MOPS. The calculated weights averages were defined and used as the visual detection limits in FIGS. 7-10 related experiments.

AtzR, sequence (as listed by the source): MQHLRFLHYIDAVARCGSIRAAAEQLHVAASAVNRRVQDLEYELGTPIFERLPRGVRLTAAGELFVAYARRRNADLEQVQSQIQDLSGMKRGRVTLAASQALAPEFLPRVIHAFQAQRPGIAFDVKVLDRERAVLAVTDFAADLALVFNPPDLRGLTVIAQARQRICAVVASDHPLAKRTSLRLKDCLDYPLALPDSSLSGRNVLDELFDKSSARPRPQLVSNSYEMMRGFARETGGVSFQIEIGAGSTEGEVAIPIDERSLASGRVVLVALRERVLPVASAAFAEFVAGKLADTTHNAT

Promoter 16: group 2 promoter variant, sequence SEQ ID NO: 18 (DNA GGTGCCGATCCGGCACCTTTTTGTACCTATAATAGATTCATGATGA; expressed or natural sequence)
transcriptional activity compared with WT promoter, measured by reporter expression (DH10B E. coli cells): transcriptionally more active than WT promoter

Promoter 10: group 2 promoter variant; apFAB spacer replaced with RBS L and R (DNA TTGACAGGTGCCGGATCGGCACCTATAATAGATTCATGATGA; expressed or natural sequence)
fold repression (ratio of GFP expression without and with AtzR) (AtzR [1]): 50 fold | response to cyanuric acid (inducibility) (AtzR [2]): lack of cyanuric acid response | increase in reporter expression in response to cyanuric acid (AtzR [2]): greater than two-fold increase | transcriptional activity compared with WT promoter, measured by reporter expression (DH10B E. coli cells): transcriptionally more active than WT promoter

Promoter 13: group 2 promoter variant; apFAB spacer replaced with RBS in R-L orientation (DNA TTGACAGGTGCCGATCCGGCACCTATAATAGATTCATGATGA; expressed or natural sequence)
increase in reporter expression in response to cyanuric acid (AtzR [2]): greater than two-fold increase | transcriptional activity compared with WT promoter, measured by reporter expression (DH10B E. coli cells): transcriptionally more active than WT promoter

Promoter 12: group 2 promoter variant, sequence SEQ ID NO: 14 (DNA GGTGCCGACACGGCACCTTTTTGTACCTATAATAGATTCATGATGA; expressed or natural sequence)
transcriptional activity compared with WT promoter, measured by reporter expression (DH10B E. coli cells): transcriptionally more active than WT promoter

Promoter 15: group 2 promoter variant; RBS placed upstream of -35 (DNA GGTGCCGATCCGGCACCTTGACATCGCATCTTTTTGTACCTATAATAGATTCATGATGA; expressed or natural sequence)
transcriptional activity compared with WT promoter, measured by reporter expression (DH10B E. coli cells): transcriptionally more active than WT promoter | lower threshold of detection of cyanuric acid (AtzR [3]; minimal media): ~15 µM | cyanuric acid concentration at which signal begins to saturate (AtzR [3]): 1 mM | lower threshold of detection of cyanuric acid (AtzR [3]; rich media): ~25 µM

B1: Promoter 2: group 1 promoter variant; sequence 3' of ABS 3 replaced with corresponding region of apFab71 (nucleic acid)
DNA: TCGGTGCCGGATCGGCACCAGTTAGGTCGGAAAAAGGCGGCAGTCAAGTGCGCTTTTTGTACCTATAATAGATTCATGATGA
modifications: expressed or natural sequence
response to cyanuric acid (inducibility) (AtzR [2]): inducible | fold activation (ratio of GFP with and without cyanuric acid) (AtzR [2]; medium not specified): approximately 10 fold | fold activation (ratio of GFP with and without cyanuric acid) (AtzR [2]; minimal media): 15 fold | increase in reporter expression in response to cyanuric acid (AtzR [2]): greater than two-fold increase | uninduced baseline (no cyanuric acid) (AtzR [2]): about 4000 fluorescence units | transcriptional activity compared with WT promoter, measured by reporter expression (DH10B E. coli cells): transcriptionally more active than WT promoter | lower threshold of detection of cyanuric acid (AtzR [3]; minimal media): ~15 µM | cyanuric acid concentration at which signal begins to saturate (AtzR [3]): 1 mM | lower threshold of detection of cyanuric acid (AtzR [3]; rich media): ~25 µM

B2: Promoter 6: group 1 promoter variant with consensus E. coli -35 and apFab71 3' sequence, on a low-copy number plasmid (nucleic acid)
DNA: TCGGTGCCGGATCGGCACCAGTTAGGTCGGAAAAAGGCGGCAGACAAGTGCGCTTTTTGTACCTATAATAGATTCATGATGA
fold repression (ratio of GFP expression without and with AtzR) (AtzR [1]): 10 fold | fold activation (ratio of GFP with and without cyanuric acid) (AtzR [2]; medium not specified): approximately 10 fold | increase in reporter expression in response to cyanuric acid (AtzR [2]): greater than two-fold increase | transcriptional activity compared with WT promoter, measured by reporter expression (DH10B E. coli cells): transcriptionally more active than WT promoter

B3: Promoter 5: group 1 promoter variant with consensus E. coli -35 and apFab71 3' sequence, on a high-copy number plasmid (nucleic acid)
DNA: TCGGTGCCGGATCGGCACCAGTTAGGTCGGAAAAAGGCGGCAGACAAGTGCGCTTTTTGTACCTATAATAGATTCATGATGA
fold activation (ratio of GFP with and without cyanuric acid) (AtzR [2]; medium not specified): approximately 10 fold | increase in reporter expression in response to cyanuric acid (AtzR [2]): greater than two-fold increase | uninduced baseline (no cyanuric acid) (AtzR [2]): 22000 fluorescence units | transcriptional activity compared with WT promoter, measured by reporter expression (DH10B E. coli cells): transcriptionally more active than WT promoter

B4: Promoter 11: group 2 promoter variant; RBS placed upstream of -35 (nucleic acid)
DNA: CAAGATCGGTGCCGGATCGGCACCAGTTAGGTCTTGACATCGCATCTTTTTGTACCTATAATAGATTCATGATGA
modifications: expressed or natural sequence
transcriptional activity compared with WT promoter, measured by reporter expression (DH10B E. coli cells): transcriptionally more active than WT promoter

B5: Promoter 14: group 2 promoter variant, sequence SEQ ID NO: 16 (nucleic acid)
DNA: GACCTAACTGGTGCCGATCCGGCACCGATCTTGTTGACATCGCATCTTTTTGTACCTATAATAGATTCATGATGA
modifications: expressed or natural sequence
transcriptional activity compared with WT promoter, measured by reporter expression (DH10B E. coli cells): transcriptionally more active than WT promoter

B6: Promoter 7: group 1 promoter variant of presumed intermediate strength, -35 site mutated toward E. coli consensus (nucleic acid)
DNA: TCGGTGCCGGATCGGCACCAGTTAGGTCGGAAAAAGGCGGCAGACAAGTGCGCTTTTTGTACCTATATAGATTCATGATGA
modifications: expressed or natural sequence
transcriptional activity compared with WT promoter, measured by reporter expression (DH10B E. coli cells): transcriptionally more active than WT promoter | GFP reporter expression of cells carrying only the promoter (DH10B E. coli cells): highest expression

B7: Promoter 8: group 1 promoter variant of presumed intermediate strength, -35 site mutated toward E. coli consensus (nucleic acid)
DNA: TCGGTGCCGGATCGGCACCAGTTAGGTCGGAAAAAGGCGGCAGACAAGTGCGCTTTTTGTACCTATAAAGATTCATGATGA
modifications: expressed or natural sequence
increase in reporter expression in response to cyanuric acid (AtzR [2]): greater than two-fold increase | transcriptional activity compared with WT promoter, measured by reporter expression (DH10B E. coli cells): transcriptionally more active than WT promoter | GFP reporter expression of cells carrying only the promoter (DH10B E. coli cells): highest expression

B8: Promoter 4: group 1 promoter variant weakened by deleting a single base from the -10 site (nucleic acid)
DNA: TCGGTGCCGGATCGGCACCAGTTAGGTCGGAAAAAGGCGGCAGTCAAGTGCGCTTTTTGTACCTATAAAGATTCATGATGA
modifications: expressed or natural sequence
response to cyanuric acid (inducibility) (AtzR [2]): only promoter variant 2 was inducible

B9: Promoter 3: group 1 promoter variant weakened by deleting a single base from the -10 site (nucleic acid)
DNA: TCGGTGCCGGATCGGCACCAGTTAGGTCGGAAAAAGGCGGCAGTCAAGTGCGCTTTTTGTACCTATATAGATTCATGATGA
modifications: expressed or natural sequence
response to cyanuric acid (inducibility) (AtzR [2]): only promoter variant 2 was inducible

B10: Promoter 1: group 1 promoter variant; Pseudomonas -10 site replaced with consensus E. coli -10 site (nucleic acid)
DNA: ATGCGAGTCAAAGCAAGATCGGTGCCGGATCGGCACCAGTTAGGTCGGAAAAAGGCGGCAGTCAAGTGCGCAGGGCGGCGTTATAATTGAACGAA
modifications: expressed or natural sequence
notes: group 1 promoter variant; Pseudomonas -10 site replaced with consensus E. coli -10 site
transcriptional activity compared with WT promoter, measured by reporter expression (DH10B E. coli cells): transcriptionally more active than WT promoter | lower threshold of detection of cyanuric acid (AtzR [3]; minimal media): ~15 µM | cyanuric acid concentration at which signal begins to saturate (AtzR [3]): 1 mM | lower threshold of detection of cyanuric acid (AtzR [3]; rich media): ~25 µM
